Test results: patent US20240050568A1 (NANJING IASO BIOTECHNOLOGY, published 2024)
Values belong to the binder of their own block, whether it stands above or below them.

What was measured:
[1] = target: T1, fluorescent dye-labeled human CD5 protein (human, UniProt P06127 25-371, limits assumed, fluorescent dye label (dye and sites not stated)); test: flow cytometry: CT125A cells with graded fluorescent human CD5 protein, percent labelled CAR+ cells fitted; 2nd time
T1 construct: also called human CD5 antigen
T1 sequence (looked up): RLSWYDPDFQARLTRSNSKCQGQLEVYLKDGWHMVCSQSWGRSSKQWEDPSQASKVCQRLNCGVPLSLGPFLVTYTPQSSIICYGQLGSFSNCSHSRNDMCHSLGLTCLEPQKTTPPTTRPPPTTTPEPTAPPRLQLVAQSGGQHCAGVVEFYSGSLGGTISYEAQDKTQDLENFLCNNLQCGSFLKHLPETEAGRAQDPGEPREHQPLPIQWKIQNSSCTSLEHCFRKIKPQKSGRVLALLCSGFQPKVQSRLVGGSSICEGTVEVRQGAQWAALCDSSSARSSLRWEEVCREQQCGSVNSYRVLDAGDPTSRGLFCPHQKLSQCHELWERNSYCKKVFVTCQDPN
Source text: (§1) The relationship between the percentage of the fluorescence-labeled CAR+positive cells and the concentration of CD5 protein was fitted by Graphpad Prism software to calculate the affinity EC50 constant. This experiment was completed by Shanghai IASO Biotherapeutics Co., Ltd., and a total of three independent experiments were repeated.

[2] = target: T2, human CD5 expressed on cells (human, UniProt P06127 25-495); test: cell-based or functional assay
T2 sequence (looked up): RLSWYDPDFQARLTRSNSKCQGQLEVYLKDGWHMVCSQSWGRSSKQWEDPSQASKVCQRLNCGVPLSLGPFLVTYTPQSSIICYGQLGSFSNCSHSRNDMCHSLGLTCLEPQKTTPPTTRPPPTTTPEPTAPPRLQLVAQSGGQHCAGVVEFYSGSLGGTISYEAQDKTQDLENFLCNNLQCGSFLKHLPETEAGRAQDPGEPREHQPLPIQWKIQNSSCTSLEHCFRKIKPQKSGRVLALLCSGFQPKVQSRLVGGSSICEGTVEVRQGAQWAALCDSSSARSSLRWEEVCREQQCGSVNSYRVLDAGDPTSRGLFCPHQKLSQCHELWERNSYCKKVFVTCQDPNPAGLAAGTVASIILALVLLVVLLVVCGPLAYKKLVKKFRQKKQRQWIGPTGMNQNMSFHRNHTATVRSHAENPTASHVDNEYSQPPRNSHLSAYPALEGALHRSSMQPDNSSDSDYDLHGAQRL

[3] = target: T1, fluorescent dye-labeled human CD5 …; test: flow cytometry: CT125A cells with graded fluorescent human CD5 protein, percent labelled CAR+ cells fitted; 1st time
Source text: as §1

[4] = target: T1, fluorescent dye-labeled human CD5 …; test: flow cytometry: CT125A cells with graded fluorescent human CD5 protein; average of three experiments
Source text: as §1

[5] = target: T1, fluorescent dye-labeled human CD5 …; test: flow cytometry: CT125A cells with graded fluorescent human CD5 protein, percent labelled CAR+ cells fitted; 3rd time
Source text: as §1

[6] = target: T3, CD5 antigen (Acro, CD5-H52H5) (UniProt P06127 25-371); test: BLI (Octet), IgG loaded on the biosensor, CD5 antigen 100 to 1.563 nM, 1:1 model
T3 construct: Bought protein
T3 sequence (looked up): T1 sequence (looked up)

[7] = target: T2, human CD5 expressed on cells; test: flow cytometry on SUP-T1-Luc cells, percent positive cells fitted (called Kd in paragraph 233); 2nd time
Procedure: (§2) The relationship between the percentage of fluorescence-labeled positive CD5⁺ target cells and different concentrations of CD5 tandem single-domain antibody was analyzed by fitting using Graphpad Prism software to calculate the EC50 constant. A total of three independent repetitions were performed in this experiment.

[8] = target: T2, human CD5 expressed on cells; test: flow cytometry on CCRF-CEM-Luc cells, percent positive cells fitted (called Kd in paragraph 233); 1st time
Procedure: as §2

[9] = target: T2, human CD5 expressed on cells; test: flow cytometry on SUP-T1-Luc cells, percent positive cells fitted (called Kd in paragraph 233); 1st time
Procedure: as §2

[10] = target: T2, human CD5 expressed on cells; test: flow cytometry on SUP-T1-Luc cells, percent positive cells fitted (called Kd in paragraph 233); 3rd time
Procedure: as §2

[11] = target: T2, human CD5 expressed on cells; test: flow cytometry on JVM-2-Luc-CD5 cells, percent positive cells fitted (called Kd in paragraph 233); 2nd time
Procedure: as §2

[12] = target: T2, human CD5 expressed on cells; test: flow cytometry on MEC-1-CD5-Luc cells (called Kd in paragraph 233); average of three experiments
Procedure: as §2

[13] = target: T2, human CD5 expressed on cells; test: flow cytometry on CCRF-CEM-Luc cells, percent positive cells fitted (called Kd in paragraph 233); 2nd time
Procedure: as §2

[14] = target: T2, human CD5 expressed on cells; test: flow cytometry on SUP-T1-Luc cells (called Kd in paragraph 233); average of three experiments
Procedure: as §2

[15] = target: T2, human CD5 expressed on cells; test: flow cytometry on JVM-2-Luc-CD5 cells, percent positive cells fitted (called Kd in paragraph 233); 3rd time
Procedure: as §2

[16] = target: T2, human CD5 expressed on cells; test: flow cytometry on CCRF-CEM-Luc cells, percent positive cells fitted (called Kd in paragraph 233); 3rd time
Procedure: as §2

[17] = target: T2, human CD5 expressed on cells; test: flow cytometry on MEC-1-CD5-Luc cells, percent positive cells fitted (called Kd in paragraph 233); 3rd time
Procedure: as §2

[18] = target: T2, human CD5 expressed on cells; test: flow cytometry on JVM-2-Luc-CD5 cells, percent positive cells fitted (called Kd in paragraph 233); 1st time
Procedure: as §2

[19] = target: T2, human CD5 expressed on cells; test: flow cytometry on MEC-1-CD5-Luc cells, percent positive cells fitted (called Kd in paragraph 233); 2nd time
Procedure: as §2

[20] = target: T2, human CD5 expressed on cells; test: flow cytometry on JVM-2-Luc-CD5 cells (called Kd in paragraph 233); average of three experiments
Procedure: as §2

[21] = target: T2, human CD5 expressed on cells; test: flow cytometry on MEC-1-CD5-Luc cells, percent positive cells fitted (called Kd in paragraph 233); 1st time
Procedure: as §2

[22] = target: T2, human CD5 expressed on cells; test: flow cytometry on CCRF-CEM-Luc cells (called Kd in paragraph 233); average of three experiments
Procedure: as §2

B2: FHVH1 (#42 IgG) (Fc fusion)
chain: EVQLLESGGGLVQPGGSLRLSCAASGFTFSHSAMGWVRQAPGKGLEWVSSIYARGGYTYYADSVKGRFTISRDNSKNTLYLQMNSLRAEDTAVYYCARGYHLEYMVSQDVWGQGTLVTVSS
notes: also called #42 clone; anti-CD5 IgG; not shown: human IgG4 Fc
- Kd [6]: 2.9 nM
- koff [6]: 0.000139 s⁻¹
- kon [6]: 48000 M⁻¹ s⁻¹

B6: FHVH3VH1 (#61-42 IgG) (Fc fusion)
chain: QVQLVQSGAEVKKPGSSVKVSCKASGGTFSNYAISWVRQAPGQGLEWMGWISAYNGDTKYAQRLQGRVTMTTDTSTSTAYMELRNLRSDDTAVYYCARYESMSGQDIWGQGTLVTVSSGGGGSGGGGSGGGGSEVQLLESGGGLVQPGGSLRLSCAASGFTFSHSAMGWVRQAPGKGLEWVSSIYARGGYTYYADSVKGRFTISRDNSKNTLYLQMNSLRAEDTAVYYCARGYHLEYMVSQDVWGQGTLVTVSS
notes: also called anti-CD5 IgG; not shown: human IgG4 Fc
- Kd [6]: 1.67 nM
- koff [6]: 0.000189 s⁻¹
- kon [6]: 113000 M⁻¹ s⁻¹

B7: CT125A tandem single-domain antibody rabbit FC fusion protein RD125 61-42 rFc (Fc fusion)
chain: B6 chain
notes: also called CD5 tandem single-domain antibody rabbit Fc fusion protein; not shown: rabbit Fc
- EC50 [7]: 4.58 nM
- EC50 [8]: 3.04 nM
- EC50 [9]: 2.72 nM
- EC50 [10]: 4.75 nM
- EC50 [11]: 0.56 nM
- EC50 [12]: 1.14 nM
- EC50 [13]: 2.54 nM
- EC50 [14]: 4.02 nM
- EC50 [15]: 0.72 nM
- EC50 [16]: 3.39 nM
- EC50 [17]: 1.2 nM
- EC50 [18]: 0.64 nM
- EC50 [19]: 0.92 nM
- EC50 [20]: 0.64 nM
- EC50 [21]: 1.3 nM
- EC50 [22]: 2.99 nM

Continued, in another order:

- EC50 [1]: 1.22 nM
- EC50 [3]: 3.82 nM
- EC50 [4]: 2.07 nM
- EC50 [5]: 1.18 nM
B1: FHVH3VH1 CAR (other)
chain: QVQLVQSGAEVKKPGSSVKVSCKASGGTFSNYAISWVRQAPGQGLEWMGWISAYNGDTKYAQRLQGRVTMTTDTSTSTAYMELRNLRSDDTAVYYCARYESMSGQDIWGQGTLVTVSSGGGGSGGGGSGGGGSEVQLLESGGGLVQPGGSLRLSCAASGFTFSHSAMGWVRQAPGKGLEWVSSIYARGGYTYYADSVKGRFTISRDNSKNTLYLQMNSLRAEDTAVYYCARGYHLEYMVSQDVWGQGTLVTVSSFVPVFLPAKPTTTPAPRPPTPAPTIASQPLSLRPEACRPAAGGAVHTRGLDFACDIYIWAPLAGTCGVLLLSLVITLYCNHRNKRGRKKLLYIFKQPFMRPVQTTQEEDGCSCRFPEEEEGGCELRVKFSRSADAPAYQQGQNQLYNELNLGRREEYDVLDKRRGRDPEMGGKPRRKNPQEGLYNELQKDKMAEAYSEIGMKGERRRGKGHDGLYQGLSTATKDTYDALHMQALPPR
notes: Signal peptide left out; T2A remnant at the C-terminus not written; also called CT125A; CT125A injection
- cytotoxicity on CCRF-CEM-Luc cells, effector-target ratio 1:1 [2]: 95.6%
- cytotoxicity on CCRF-CEM-Luc cells, effector-target ratio 2:1 [2]: 96.9%
- cytotoxicity on JVM-2-Luc-CD5 cells, effector-to-target ratio 5:1 [2]: 96.4%
- cytotoxicity on JVM-2-Luc-CD5 cells, effector-to-target ratio 10:1 [2]: 98.5%
- cytotoxicity on MEC-1-CD5-Luc cells, effector-to-target ratio 1:1 [2]: 97.7%
- cytotoxicity on MEC-1-CD5-Luc cells, effector-to-target ratio 2:1 [2]: 98.2%
- cytotoxicity on SUP-T1-Luc cells, effector-target ratio 1:1 [2]: 56.9%
- cytotoxicity on SUP-T1-Luc cells, effector-target ratio 2:1 [2]: 91%

- Kd [6]: 27.4 nM
- koff [6]: 0.000309 s⁻¹
- kon [6]: 12500 M⁻¹ s⁻¹
B3: FHVH4 (#62 IgG) (Fc fusion)
chain: QVQLVQSGAEVKKPGESLRISCKASGYSFSNHWIGWVRQKPGKGLEWMGSVYPGDSDTRYSPSFQGHVTVSADKSMNTAYLQWSSLKTSDTAMYYCARGGTIDGDYGGRQDFWGQGTMVTVSS
notes: as for B6

- Kd [6]: 8.32 nM
- koff [6]: 0.000212 s⁻¹
- kon [6]: 25500 M⁻¹ s⁻¹
B4: FHVH2 (#60 IgG) (Fc fusion)
chain: QVQLVESGGGLVQPGGSLRLSCAASGFTFSSYEMNWVRQAPGKGLEWVSYISSSGSTIYYADSVKGRFTISRDNAKNSLYLQMNSLRAEDTAVYYCARVAQREGDVWGKGTTVTVSS
notes: as for B6

- Kd [6]: 3.96 nM
- koff [6]: 0.000288 s⁻¹
- kon [6]: 72800 M⁻¹ s⁻¹
B5: FHVH3 (#61 IgG) (Fc fusion)
chain: QVQLVQSGAEVKKPGSSVKVSCKASGGTFSNYAISWVRQAPGQGLEWMGWISAYNGDTKYAQRLQGRVTMTTDTSTSTAYMELRNLRSDDTAVYYCARYESMSGQDIWGQGTLVTVSS
notes: also called #61 clone; anti-CD5 IgG; not shown: human IgG4 Fc
